Like-named read-outs stand apart in the source and are kept apart here.
How the values were obtained:
[1] = system: AR42J cells; assay: Cellular uptake of ^203Pb-labeled peptides; type: cell-based, rat; conditions: 2 h post-incubation
Description: PSCTOC and PSC-PEG2-TOC were labeled with ^203Pb and purified via HPLC for high molar activities as descibed in the Supplementary Material and in Li and collaborators. The HPLC-purified ^203Pb-labeled peptides (3.4 kBq) were incubated with AR42J cells in 24-well plates (pre-coated with poly-D-lysine), which were plated at a density of 2.0 × 10^5 cells 2 days prior, in the binding medium at 37 °C for up to 120 min. The cells were then washed twice and lysed, and the radioactivities of the samples were determined (n=3).

[2] = In vivo biodistribution of ^203Pb-labeled peptides; set-up: species or system mice; conditions: female, athymic nu/nu, mouse, intravenous, total radioactivity
Description: AR42J cells (5.0 × 10^6 cells/animal) were implanted subcutaneously on the left shoulder of female athymic nu/nu mice. […] Extra groups of mice were co-administered 37 kBq of ^203Pb-PSC-PEG2-TOC with DL-lysine (400 mg/kg) to determine the effect of amino acid on renal uptake of the radiopharmaceutical. Mice (n=3 per time point) were euthanized at 1, 3, and 24 h post-administration, and tumors and organs/tissues of interest were excised and weighed. The radioactivities of the samples were measured using the gamma counter.

Q: Which results are given for `C[C@@H](O)[C@@H]1NC(=O)[C@H](CCCCN)NC(=O)[C@@H](Cc2c[nH]c3ccccc23)NC(=O)[C@H](Cc2ccc(O)cc2)NC(=O)[C@@H](NC(=O)[C@@H](Cc2ccccc2)NC(=O)CCOCCOCCNC(=O)CN2CCN(CC(=O)O)CCN(CC(N)=O)CCN(CC(=O)O)CC2)CSSC[C@@H](C(=O)N[C@H](CO)[C@@H](C)O)NC1=O` [[^203Pb]Pb-PSC-PEG2-TOC, metal not drawn]?
A: Cellular uptake, factor vs. [^203Pb]Pb-PSCTOC [1]: 4; Cellular uptake, fold vs. [^203Pb]Pb-DOTATOC [1]: 21 fold; Cellular uptake ([1]; 37 °C): 18%; tissue uptake at 1 h ([2]; blood, 37 kBq, 1 h post-administration, read-out: Blood): 0.36 ± 0.1 %ID/g; tissue uptake at 3 h ([2]; blood, 37 kBq, 3 h (No Lys), Table S4 study, read-out: Blood): 0.07 ± 0.02 %ID/g; tissue uptake at 3 h ([2]; blood, 37 kBq, 3 h post-administration, read-out: Blood): 0.05 %ID/g; tissue uptake at 24 h ([2]; blood, 37 kBq, 24 h post-administration, read-out: Blood): 0.02 %ID/g; tissue uptake at 1 h ([2]; blood, 1 h, DL-lysine co-administered, read-out: Blood): 0.36 ± 0.15 %ID/g; tissue uptake at 3 h ([2]; blood, 3 h (Blocking): 10 nmol unlabeled PSC-PEG2-TOC co-administered, read-out: Blood): 0.13 ± 0.02 %ID/g; tissue uptake at 3 h ([2]; blood, 3 h, DL-lysine co-administered, read-out: Blood): 0.07 ± 0.02 %ID/g; tissue uptake at 6 h ([2]; blood, DL-lysine co-administered, read-out: Blood): 0.05 ± 0.03 %ID/g; tissue uptake at 24 h ([2]; blood, 24 h, DL-lysine co-administered, read-out: Blood): 0.01 %ID/g; tissue uptake at 3 h ([2]; bone marrow, 37 kBq, 3 h (No Lys), Table S4 study, read-out: Bone marrow): 4.17 ± 1.51 %ID/g; tissue uptake at 1 h ([2]; bone marrow, 1 h, DL-lysine co-administered, read-out: Bone marrow): 2.42 ± 0.32 %ID/g; tissue uptake at 3 h ([2]; bone marrow, 3 h (Blocking): 10 nmol unlabeled PSC-PEG2-TOC co-administered, read-out: Bone marrow): 0.99 ± 0.42 %ID/g; tissue uptake at 3 h ([2]; bone marrow, 3 h, DL-lysine co-administered, read-out: Bone marrow): 4.13 ± 1.55 %ID/g; tissue uptake at 6 h ([2]; bone marrow, DL-lysine co-administered, read-out: Bone marrow): 1.69 ± 0.34 %ID/g; tissue uptake at 24 h ([2]; bone marrow, 24 h, DL-lysine co-administered, read-out: Bone marrow): 0.87 ± 0.6 %ID/g; tissue uptake at 3 h ([2]; bone, 37 kBq, 3 h (No Lys), Table S4 study, read-out: Bone): 0.62 ± 0.24 %ID/g; tissue uptake at 1 h ([2]; bone, 1 h, DL-lysine co-administered, read-out: Bone): 1.48 ± 0.34 %ID/g; tissue uptake at 3 h ([2]; bone, 3 h (Blocking): 10 nmol unlabeled PSC-PEG2-TOC co-administered, read-out: Bone): 0.16 ± 0.1 %ID/g; tissue uptake at 3 h ([2]; bone, 3 h, DL-lysine co-administered, read-out: Bone): 0.48 ± 0.05 %ID/g; tissue uptake at 6 h ([2]; bone, DL-lysine co-administered, read-out: Bone): 0.35 ± 0.06 %ID/g; tissue uptake at 24 h ([2]; bone, 24 h, DL-lysine co-administered, read-out: Bone): 0.16 ± 0.04 %ID/g; tissue uptake at 1 h ([2]; brain, 37 kBq, 1 h post-administration, read-out: Brain): 0.04 ± 0.01 %ID/g; tissue uptake at 3 h ([2]; brain, 37 kBq, 3 h (No Lys), Table S4 study, read-out: Brain): 0.08 ± 0.06 %ID/g; tissue uptake at 3 h ([2]; brain, 37 kBq, 3 h post-administration, read-out: Brain): 0.02 %ID/g; tissue uptake at 24 h ([2]; brain, 37 kBq, 24 h post-administration, read-out: Brain): 0.01 %ID/g; tissue uptake at 1 h ([2]; brain, 1 h, DL-lysine co-administered, read-out: Brain): 0.04 ± 0.01 %ID/g; tissue uptake at 3 h ([2]; brain, 3 h (Blocking): 10 nmol unlabeled PSC-PEG2-TOC co-administered, read-out: Brain): 0.03 ± 0.01 %ID/g; tissue uptake at 3 h ([2]; brain, 3 h, DL-lysine co-administered, read-out: Brain): 0.03 ± 0.01 %ID/g; tissue uptake at 6 h ([2]; brain, DL-lysine co-administered, read-out: Brain): 0.02 %ID/g; tissue uptake at 24 h ([2]; brain, 24 h, DL-lysine co-administered, read-out: Brain): 0.01 %ID/g; tissue uptake at 1 h ([2]; heart, 37 kBq, 1 h post-administration, read-out: Heart): 0.2 ± 0.05 %ID/g; tissue uptake at 3 h ([2]; heart, 37 kBq, 3 h (No Lys), Table S4 study, read-out: Heart): 0.2 ± 0.13 %ID/g; tissue uptake at 3 h ([2]; heart, 37 kBq, 3 h post-administration, read-out: Heart): 0.08 ± 0.02 %ID/g; tissue uptake at 24 h ([2]; heart, 37 kBq, 24 h post-administration, read-out: Heart): 0.03 ± 0.01 %ID/g; tissue uptake at 1 h ([2]; heart, 1 h, DL-lysine co-administered, read-out: Heart): 0.28 ± 0.08 %ID/g; tissue uptake at 3 h ([2]; heart, 3 h (Blocking): 10 nmol unlabeled PSC-PEG2-TOC co-administered, read-out: Heart): 0.07 ± 0.03 %ID/g; tissue uptake at 3 h ([2]; heart, 3 h, DL-lysine co-administered, read-out: Heart): 0.15 ± 0.03 %ID/g; tissue uptake at 6 h ([2]; heart, DL-lysine co-administered, read-out: Heart): 0.07 ± 0.05 %ID/g; tissue uptake at 24 h ([2]; heart, 24 h, DL-lysine co-administered, read-out: Heart): 0.03 ± 0.01 %ID/g; tissue uptake at 1 h ([2]; kidneys, 37 kBq, 1 h post-administration, read-out: Kidneys): 20.6 %ID/g; tissue uptake at 3 h ([2]; kidneys, 37 kBq, 3 h (No Lys), Table S4 study, read-out: Kidneys): 22.1 ± 1.92 %ID/g; tissue uptake at 3 h ([2]; kidneys, 37 kBq, 3 h post-administration, read-out: Kidneys): 15.8 ± 1.11 %ID/g; tissue uptake at 24 h ([2]; kidneys, 37 kBq, 24 h post-administration, read-out: Kidneys): 1.5 %ID/g; tissue uptake at 1 h ([2]; kidneys, 1 h, DL-lysine co-administered, read-out: Kidneys): 13.3 ± 3.8 %ID/g; tissue uptake at 3 h ([2]; kidneys, 3 h (Blocking): 10 nmol unlabeled PSC-PEG2-TOC co-administered, read-out: Kidneys): 40.9 ± 9.92 %ID/g; tissue uptake at 3 h ([2]; kidneys, 3 h, DL-lysine co-administered, read-out: Kidneys): 9.84 ± 0.88 %ID/g; tissue uptake at 6 h ([2]; kidneys, DL-lysine co-administered, read-out: Kidneys): 5.44 ± 0.63 %ID/g; tissue uptake at 24 h ([2]; kidneys, 24 h, DL-lysine co-administered, read-out: Kidneys): 1.25 ± 0.86 %ID/g; tissue uptake at 1 h ([2]; large intestine, 37 kBq, 1 h post-administration, read-out: Large intestine): 1.24 ± 0.12 %ID/g; tissue uptake at 3 h ([2]; large intestine, 37 kBq, 3 h (No Lys), Table S4 study, read-out: Large intestine): 1.92 ± 0.56 %ID/g; tissue uptake at 3 h ([2]; large intestine, 37 kBq, 3 h post-administration, read-out: Large intestine): 6.32 ± 0.68 %ID/g; tissue uptake at 24 h ([2]; large intestine, 37 kBq, 24 h post-administration, read-out: Large intestine): 0.83 ± 0.45 %ID/g; tissue uptake at 1 h ([2]; large intestine, 1 h, DL-lysine co-administered, read-out: Large intestine): 1.99 ± 0.31 %ID/g; tissue uptake at 3 h ([2]; large intestine, 3 h (Blocking): 10 nmol unlabeled PSC-PEG2-TOC co-administered, read-out: Large intestine): 0.99 ± 0.46 %ID/g; tissue uptake at 3 h ([2]; large intestine, 3 h, DL-lysine co-administered, read-out: Large intestine): 3.97 ± 0.97 %ID/g; tissue uptake at 6 h ([2]; large intestine, DL-lysine co-administered, read-out: Large intestine): 3.34 ± 0.63 %ID/g; tissue uptake at 24 h ([2]; large intestine, 24 h, DL-lysine co-administered, read-out: Large intestine): 1.01 ± 0.67 %ID/g; tissue uptake at 1 h ([2]; liver, 37 kBq, 1 h post-administration, read-out: Liver): 0.36 ± 0.05 %ID/g; tissue uptake at 3 h ([2]; liver, 37 kBq, 3 h (No Lys), Table S4 study, read-out: Liver): 0.31 ± 0.03 %ID/g; tissue uptake at 3 h ([2]; liver, 37 kBq, 3 h post-administration, read-out: Liver): 0.23 ± 0.02 %ID/g; tissue uptake at 24 h ([2]; liver, 37 kBq, 24 h post-administration, read-out: Liver): 0.08 ± 0.04 %ID/g; tissue uptake at 1 h ([2]; liver, 1 h, DL-lysine co-administered, read-out: Liver): 0.44 ± 0.08 %ID/g; tissue uptake at 3 h ([2]; liver, 3 h (Blocking): 10 nmol unlabeled PSC-PEG2-TOC co-administered, read-out: Liver): 0.3 ± 0.07 %ID/g; tissue uptake at 3 h ([2]; liver, 3 h, DL-lysine co-administered, read-out: Liver): 0.25 ± 0.05 %ID/g; tissue uptake at 6 h ([2]; liver, DL-lysine co-administered, read-out: Liver): 0.17 ± 0.02 %ID/g; tissue uptake at 24 h ([2]; liver, 24 h, DL-lysine co-administered, read-out: Liver): 0.06 ± 0.01 %ID/g; tissue uptake at 1 h ([2]; lung, 37 kBq, 1 h post-administration, read-out: Lung): 3.58 ± 1.64 %ID/g; tissue uptake at 3 h ([2]; lung, 37 kBq, 3 h (No Lys), Table S4 study, read-out: Lung): 4.61 ± 3.75 %ID/g

From paper PMC10881741, “Structural modifications toward improved lead-203/lead-212 peptide-based image-guided alpha-particle radiopharmaceutical therapies for neuroendocrine tumors” (European Journal of Nuclear Medicine and Molecular Imaging, 2023)
